# Molecular target: PRAME-004 peptide presented by HLA-A*02 on target cells (peptide-loaded T2 cells); PRAME-004-presenting tumor … (human)
# Test: cell-based or functional assay
"EC50 of IFNγ release, T2 cells loaded with PRAME-004 from 10 µM to 10 pM (FIG. 12) [µM]","EC50 of IFNγ release, T2 cells loaded with PRAME-004 from 10 µM to 10 pM (FIG. 13) [nM]",Binder
~1,,"TCR R16P1E8 (TCR, V domains shown) V domain 1: QKEVEQDPGPLSVPEGAIVSLNCTYSNSAFQYFMWYRQYSRKGPELLMYTYSSGNKEDGRFTAQVDKSSKYISLFIRDSQPSDSATYLCAMSEAAGNKLTFGGGTRVLVKP V domain 2: EAGVAQSPRYKIIEKRQSVAFWCNPISGHATLYWYQQILGQGPKLLIQFQNNGVVDDSQLPKDRFSAERLKGVDSTLKIQPAKLEDSAVYLCASSYTNQGEAFFGQGTRLTVVE"
,1.83,"TCR R17P1D7 (TCR, V domains shown) V domain 1: QTVTQSQPEMSVQEAETVTLSCTYDTSESDYYLFWYKQPPSRQMILVIRQEAYKQQNATENRFSVNFQKAAKSFSLKISDSQLGDAAMYFCAYRWAQGGSEKLVFGKGTKLTVNP V domain 2: DIYQTPRYLVIGTGKKITLECSQTMGHDKMYWYQQDPGMELHLIHYSYGVNSTEKGDLSSESTVSRIRTEHFPLTLESARPSHTSQYLCATELWSSGGTGELFFGEGSRLTVLE"

# Source: US20230192886A1 (IMMATICS BIOTECHNOLOGIES, published 2023)
